Results published in article PMC9482650, “Quantitative fragmentomics allow affinity mapping of interactomes” (Nature Communications, 2022).

T1: APBA2_1, Q99767
T1 sequence (Q99767 563-664, limits assumed, looked up): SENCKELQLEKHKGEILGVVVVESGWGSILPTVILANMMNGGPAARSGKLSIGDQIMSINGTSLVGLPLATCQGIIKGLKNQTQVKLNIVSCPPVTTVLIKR

T2: APBA2_2, Q99767
T2 sequence (Q99767 654-744, limits assumed, looked up): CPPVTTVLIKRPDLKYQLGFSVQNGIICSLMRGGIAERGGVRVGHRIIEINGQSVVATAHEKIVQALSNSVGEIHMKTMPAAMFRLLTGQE

T3: ARHGAP21, Q5T5U3
T3 sequence (Q5T5U3 45-169, limits assumed, looked up): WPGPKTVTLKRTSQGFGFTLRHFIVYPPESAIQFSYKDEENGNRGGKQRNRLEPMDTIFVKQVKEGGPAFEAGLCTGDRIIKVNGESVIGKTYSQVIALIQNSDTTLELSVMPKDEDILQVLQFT

T4: FRMPD1, Q5SYB0
T4 sequence (Q5SYB0 52-145, limits assumed, looked up): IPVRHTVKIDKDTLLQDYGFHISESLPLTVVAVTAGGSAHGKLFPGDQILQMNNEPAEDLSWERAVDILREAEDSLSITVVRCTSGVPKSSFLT

T5: GRIP1_3, Q9Y3R0
T5 sequence (Q9Y3R0 247-346, limits assumed, looked up): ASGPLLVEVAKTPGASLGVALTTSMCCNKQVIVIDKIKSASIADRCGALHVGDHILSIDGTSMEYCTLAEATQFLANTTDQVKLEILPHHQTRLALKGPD

T6: HTRA3, P83110
T6 sequence (P83110 354-453, limits assumed, looked up): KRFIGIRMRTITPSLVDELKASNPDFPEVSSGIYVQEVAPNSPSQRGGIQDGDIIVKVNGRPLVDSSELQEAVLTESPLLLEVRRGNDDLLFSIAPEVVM

T7: LNX2_3, Q8N448
T7 sequence (Q8N448 463-564, limits assumed, looked up): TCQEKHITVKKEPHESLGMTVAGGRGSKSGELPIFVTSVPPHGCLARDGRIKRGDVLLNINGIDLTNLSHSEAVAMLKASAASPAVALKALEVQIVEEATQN

T8: LRRC7, Q96NW7
T8 sequence (Q96NW7 1440-1537, limits assumed, looked up): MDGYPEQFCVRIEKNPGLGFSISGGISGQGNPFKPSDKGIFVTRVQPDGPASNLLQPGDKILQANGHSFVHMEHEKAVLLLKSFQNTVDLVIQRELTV

T9: NHERF3_3, Q5T2W1
T9 sequence (Q5T2W1 238-333, limits assumed, looked up): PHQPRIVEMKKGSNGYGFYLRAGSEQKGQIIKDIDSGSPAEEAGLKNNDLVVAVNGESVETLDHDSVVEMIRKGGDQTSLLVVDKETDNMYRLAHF

T10: NHERF3_4, Q5T2W1
T10 sequence (Q5T2W1 373-468, limits assumed, looked up): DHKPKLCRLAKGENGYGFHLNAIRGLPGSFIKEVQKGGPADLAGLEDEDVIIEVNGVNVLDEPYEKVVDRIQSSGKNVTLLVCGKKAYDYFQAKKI

T11: PDZD2_2, O15018
T11 sequence (O15018 329-429, limits assumed, looked up): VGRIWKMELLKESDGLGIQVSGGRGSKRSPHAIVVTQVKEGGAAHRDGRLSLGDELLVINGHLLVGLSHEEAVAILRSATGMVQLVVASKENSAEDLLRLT

T12: PDZD7_3, Q9H5P4
T12 sequence (Q9H5P4 857-944, limits assumed, looked up): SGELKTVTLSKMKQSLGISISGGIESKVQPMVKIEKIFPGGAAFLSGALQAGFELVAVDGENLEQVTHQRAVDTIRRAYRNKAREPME

T13: TJP3_3, O95049
T13 sequence (O95049 375-456, limits assumed, looked up): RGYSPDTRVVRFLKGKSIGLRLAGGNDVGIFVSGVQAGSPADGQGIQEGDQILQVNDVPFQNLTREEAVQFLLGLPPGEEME

B1: HDAC7, Q8WUI4 (peptide)
chain: LVEEEEPMNL

Each binder was assayed against T1, APBA2_1, Q99767 (assay: holdup assay). Conditions: plain residues with an end cap or a label only (N-terminal biotin on a linker: ado-ado).
Set-up: key: below the threshold = too weak to quantify, mostly under pKd 3.1 to 4

Row | pKd | Binder
1 | below the threshold | B1

The binders below were run against T2, APBA2_2, Q99767 (assay: holdup assay). Conditions: plain residues with an end cap or a label only (N-terminal biotin on a linker: ado-ado).
Set-up: key: below the threshold = too weak to quantify, mostly under pKd 3.1 to 4

Row | pKd | Binder
2 | below the threshold | B1

The binders below were run against T3, ARHGAP21, Q5T5U3 (assay: holdup assay). Conditions: plain residues with an end cap or a label only (N-terminal biotin on a linker: ado-ado).
Set-up: key: below the threshold = too weak to quantify, mostly under pKd 3.1 to 4

Row | pKd | Binder
3 | 3.77 | B1

The binders below were run against DLG1_1, Q12959 (assay: holdup assay). Conditions: plain residues with an end cap or a label only (N-terminal biotin on a linker: ado-ado).
Set-up: key: below the threshold = too weak to quantify, mostly under pKd 3.1 to 4

Row | pKd | Binder
4 | below the threshold | B1

These binders were tested against DLG2_3, Q15700 (assay: holdup assay). Conditions: plain residues with an end cap or a label only (N-terminal biotin on a linker: ado-ado).
Set-up: key: below the threshold = too weak to quantify, mostly under pKd 3.1 to 4

Row | pKd | Binder
5 | below the threshold | B1

The binders below were run against T4, FRMPD1, Q5SYB0 (assay: holdup assay). Conditions: plain residues with an end cap or a label only (N-terminal biotin on a linker: ado-ado).
Set-up: key: below the threshold = too weak to quantify, mostly under pKd 3.1 to 4

Row | pKd | Binder
6 | below the threshold | B1

The binders below were run against FRMPD3, Q5JV73 (assay: holdup assay). Conditions: plain residues with an end cap or a label only (N-terminal biotin on a linker: ado-ado).
Chain of FRMPD3, Q5JV73 (Q5JV73 12-100): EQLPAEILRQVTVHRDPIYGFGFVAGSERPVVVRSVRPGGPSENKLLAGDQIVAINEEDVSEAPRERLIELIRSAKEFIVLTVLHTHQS
Set-up: key: below the threshold = too weak to quantify, mostly under pKd 3.1 to 4

Row | pKd | Binder
7 | below the threshold | B1

The binders below were run against GOPC, Q9HD26 (assay: holdup assay). Conditions: plain residues with an end cap or a label only (N-terminal biotin on a linker: ado-ado).
Set-up: key: below the threshold = too weak to quantify, mostly under pKd 3.1 to 4

Row | pKd | Binder
8 | below the threshold | B1

Each binder was assayed against T5, GRIP1_3, Q9Y3R0 (assay: holdup assay). Conditions: plain residues with an end cap or a label only (N-terminal biotin on a linker: ado-ado).
Set-up: key: below the threshold = too weak to quantify, mostly under pKd 3.1 to 4

Row | pKd | Binder
9 | below the threshold | B1

Each binder was assayed against GRIP2_7, Q9C0E4 (assay: holdup assay). Conditions: plain residues with an end cap or a label only (N-terminal biotin on a linker: ado-ado).
Chain of GRIP2_7, Q9C0E4 (Q9C0E4 934-1023): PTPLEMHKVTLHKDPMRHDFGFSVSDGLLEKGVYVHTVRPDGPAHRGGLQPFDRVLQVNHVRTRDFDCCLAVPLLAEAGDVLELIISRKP
Set-up: key: below the threshold = too weak to quantify, mostly under pKd 3.1 to 4

Row | pKd | Binder
10 | below the threshold | B1

The binders below were run against T6, HTRA3, P83110 (assay: holdup assay). Conditions: plain residues with an end cap or a label only (N-terminal biotin on a linker: ado-ado).
Set-up: key: below the threshold = too weak to quantify, mostly under pKd 3.1 to 4

Row | pKd | Binder
11 | below the threshold | B1

These binders were tested against IL16_3, Q14005 (assay: holdup assay). Conditions: plain residues with an end cap or a label only (N-terminal biotin on a linker: ado-ado).
Chain of IL16_3, Q14005 (Q14005 1107-1207): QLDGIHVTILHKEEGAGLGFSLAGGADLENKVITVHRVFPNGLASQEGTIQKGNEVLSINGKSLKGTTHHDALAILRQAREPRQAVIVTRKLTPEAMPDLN
Set-up: key: below the threshold = too weak to quantify, mostly under pKd 3.1 to 4

Row | pKd | Binder
12 | below the threshold | B1

What follows are binders tested against Inadl_3, Q8NI35 (assay: holdup assay). Conditions: plain residues with an end cap or a label only (N-terminal biotin on a linker: ado-ado).
Chain of Inadl_3, Q8NI35 (Q8NI35 359-469): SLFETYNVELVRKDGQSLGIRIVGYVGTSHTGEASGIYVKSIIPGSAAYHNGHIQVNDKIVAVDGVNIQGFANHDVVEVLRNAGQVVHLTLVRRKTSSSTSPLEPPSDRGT
Set-up: key: below the threshold = too weak to quantify, mostly under pKd 3.1 to 4

Row | pKd | Binder
13 | below the threshold | B1

What follows are binders tested against Inadl_5, Q8NI35 (assay: holdup assay). Conditions: plain residues with an end cap or a label only (N-terminal biotin on a linker: ado-ado).
Chain of Inadl_5, Q8NI35 (Q8NI35 673-780): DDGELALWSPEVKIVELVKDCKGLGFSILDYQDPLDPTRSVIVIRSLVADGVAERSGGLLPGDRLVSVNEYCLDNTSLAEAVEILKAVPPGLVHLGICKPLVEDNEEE
Set-up: key: below the threshold = too weak to quantify, mostly under pKd 3.1 to 4

Row | pKd | Binder
14 | below the threshold | B1

These binders were tested against Inadl_9, Q8NI35 (assay: holdup assay). Conditions: plain residues with an end cap or a label only (N-terminal biotin on a linker: ado-ado).
Chain of Inadl_9, Q8NI35 (Q8NI35 1530-1615): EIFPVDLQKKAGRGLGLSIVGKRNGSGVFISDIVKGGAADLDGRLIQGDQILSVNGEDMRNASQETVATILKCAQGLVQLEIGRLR
Set-up: key: below the threshold = too weak to quantify, mostly under pKd 3.1 to 4

Row | pKd | Binder
15 | below the threshold | B1

The binders below were run against LNX1_1, Q8TBB1 (assay: holdup assay). Conditions: plain residues with an end cap or a label only (N-terminal biotin on a linker: ado-ado).
Chain of LNX1_1, Q8TBB1 (Q8TBB1 261-371): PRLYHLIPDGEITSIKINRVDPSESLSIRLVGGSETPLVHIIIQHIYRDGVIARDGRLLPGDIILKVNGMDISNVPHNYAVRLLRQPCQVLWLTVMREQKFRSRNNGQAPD
Set-up: key: below the threshold = too weak to quantify, mostly under pKd 3.1 to 4

Row | pKd | Binder
16 | below the threshold | B1

These binders were tested against T7, LNX2_3, Q8N448 (assay: holdup assay). Conditions: plain residues with an end cap or a label only (N-terminal biotin on a linker: ado-ado).
Set-up: key: below the threshold = too weak to quantify, mostly under pKd 3.1 to 4

Row | pKd | Binder
17 | below the threshold | B1

What follows are binders tested against T8, LRRC7, Q96NW7 (assay: holdup assay). Conditions: plain residues with an end cap or a label only (N-terminal biotin on a linker: ado-ado).
Set-up: key: below the threshold = too weak to quantify, mostly under pKd 3.1 to 4

Row | pKd | Binder
18 | below the threshold | B1

The binders below were run against MAST1, Q9Y2H9 (assay: holdup assay). Conditions: plain residues with an end cap or a label only (N-terminal biotin on a linker: ado-ado).
Chain of MAST1, Q9Y2H9 (Q9Y2H9 962-1065): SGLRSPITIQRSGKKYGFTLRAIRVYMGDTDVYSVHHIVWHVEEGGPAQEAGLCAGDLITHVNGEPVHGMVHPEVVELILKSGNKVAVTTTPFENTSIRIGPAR
Set-up: key: below the threshold = too weak to quantify, mostly under pKd 3.1 to 4

Row | pKd | Binder
19 | 3.61 | B1

The binders below were run against T9, NHERF3_3, Q5T2W1 (assay: holdup assay). Conditions: plain residues with an end cap or a label only (N-terminal biotin on a linker: ado-ado).
Set-up: key: below the threshold = too weak to quantify, mostly under pKd 3.1 to 4

Row | pKd | Binder
20 | below the threshold | B1

What follows are binders tested against T10, NHERF3_4, Q5T2W1 (assay: holdup assay). Conditions: plain residues with an end cap or a label only (N-terminal biotin on a linker: ado-ado).
Set-up: key: below the threshold = too weak to quantify, mostly under pKd 3.1 to 4

Row | pKd | Binder
21 | below the threshold | B1

What follows are binders tested against T11, PDZD2_2, O15018 (assay: holdup assay). Conditions: plain residues with an end cap or a label only (N-terminal biotin on a linker: ado-ado).
Set-up: key: below the threshold = too weak to quantify, mostly under pKd 3.1 to 4

Row | pKd | Binder
22 | below the threshold | B1

Each binder was assayed against T12, PDZD7_3, Q9H5P4 (assay: holdup assay). Conditions: plain residues with an end cap or a label only (N-terminal biotin on a linker: ado-ado).
Set-up: key: below the threshold = too weak to quantify, mostly under pKd 3.1 to 4

Row | pKd | Binder
23 | below the threshold | B1

What follows are binders tested against TJP1_3, Q07157 (assay: holdup assay). Conditions: plain residues with an end cap or a label only (N-terminal biotin on a linker: ado-ado).
Chain of TJP1_3, Q07157 (Q07157 416-512): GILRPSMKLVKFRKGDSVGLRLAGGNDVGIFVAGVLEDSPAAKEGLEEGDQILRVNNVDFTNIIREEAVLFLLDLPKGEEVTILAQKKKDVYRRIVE
Set-up: key: below the threshold = too weak to quantify, mostly under pKd 3.1 to 4

Row | pKd | Binder
24 | below the threshold | B1

The binders below were run against T13, TJP3_3, O95049 (assay: holdup assay). Conditions: plain residues with an end cap or a label only (N-terminal biotin on a linker: ado-ado).
Set-up: key: below the threshold = too weak to quantify, mostly under pKd 3.1 to 4

Row | pKd | Binder
25 | below the threshold | B1
